Results on six molecules are retold here after patent US20250051443A1 (NATIONAL RESEARCH COUNCIL OF CANADA, published 2025).

Experiment [1] concerns the target T1, human CD3 (human, UniProt P07766 23-207; P09693 23-182; P04234 22-171).
T1 construct: whole, on cells; also called CD3 on Jurkat T cells; CD3 on primary human T cells
The experiment is described as follows: flow competition on Jurkat, 100 nM unlabeled mAb; competitor AF488-UCHT1 5 nM. Summed up:
(§1)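 Jurkat cells incubated with a fixed concentration of AF488-labeled anti-CD3 mAb plus 100 nM unlabeled mAb, with competition read by flow cytometry as impaired labeled-mAb binding. In-house AF488-OKT3 mIgG2b was desalted and checked for integrity by UPLC-SEC.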

The target in experiment [2] is T1, human CD3. The experiment is described as follows: cell-based or functional assay.
Experiment [3] has as its target T1, human CD3. The experiment is described as follows: apparent KD (KDapp), flow cytometry titration on Jurkat cells. As for the experimental part: Unless otherwise stated, all media are kept are 4° C. and all incubations are performed on wet ice. Exponentially growing Jurkat cells were centrifuged and resuspended in complete medium at a cell density of 2×10⁶ cells/mL. Fifty μL/well of cells were distributed in a polypropylene v-bottom 96 well plate and serial 1/3 dilutions of purified mAbs starting at 300 nM were added and incubated for 2 hours. Cells were washed twice by centrifugation and further incubated with a FITC labeled F(ab′)2 goat anti-mouse antibody (Fc specific, #115-096-071, Jackson Immunoresearch, Cedarlane, Burlington, ON) for an hour. Cells were washed and re-suspended in medium containing Propidium iodide to exclude dead cells from analysis. Samples were filtered through a 60 μm nylon mesh filter plate (Millipore, Ireland) to remove cell aggregates. Flow cytometry analyses were performed on 2,000 viable single-cells events gated on forward scattering, side scattering parameters and propidium iodide dye exclusion using a BD-LSRFortessa flow cytometer (Becton-Dickinson Biosciences, CA, USA) and a standard filter set using BD FACSDiva™ acquisition software, according to manufacturer's instructions.
(In flow cytometry, cells or beads pass a laser one at a time.)

Experiment [4] concerns the target T1, human CD3. As to the kind of experiment: apparent KD (KDapp), flow cytometry titration on purified primary human T cells. An outline of the steps:
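Freshly isolated human T cells from PBMCs (negative pan-T selection), 1×10⁵ per test, stained 2 h at 4 °C with eight-point mAb dilutions from 300 or 100 nM, then APC anti-mouse IgG secondary 30 min. Background-subtracted flow MFI fitted by one-site specific binding with Hill slope for KDapp.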

The target of experiment [5] is T1, human CD3. The experiment is described as follows: flow competition on Jurkat, 100 nM unlabeled mAb; competitor AF488-OKT-3 mIgG2b 1.5 nM. As for the experimental part: In order to evaluate whether anti-CD3 monoclonal antibodies bind to the same epitope region, flow cytometry competition experiments on Jurkat cells were performed.
To that effect, a fixed concentration of the indicated AF488-labeled mAb were incubated with 100 nM of unlabeled monoclonal antibodies to assess if their binding capacity was impaired in presence of unlabeled mAbs. […] The AF488-OKT3 mIgG2b was labeled in-house using AlexaFluor488 protein labelling kit (Invitrogen #A10235) following manufacturer's instruction. The free dye removal step was done using Zeba™ Spin Desalting Columns, 7K MWCO (Thermo Scientific #89890). The final product was analyzed by UPLC-SEC to ensure the integrity of the labeled mAb.

In experiment [6] the target is T1, human CD3. As to the kind of experiment: flow competition on Jurkat, 100 nM unlabeled mAb; competitor AF488-SK7 1.5 nM. Summed up:
as §1

For experiment [7], the target named is T1, human CD3. The experiment is described as follows: flow cytometry, hybridoma supernatant on CD3+ Jurkat cells. As for the experimental part:
Cells were stained with either negative control mouse IgG (Jackson Immunoresearch cat #115-000-003) or an anti-GFP 3E6 mAb supernatant or tested hybridoma supernatant. Specific binding was reflected by the increase in the mean fluorescent intensity of antibody binding to Jurkat T-cells (FIGS. 1A to 1F, grey histograms) compared to the Jurkat CD3 negative cell line J.RT3-T3.5 (FIGS. 1A to 1F, open histograms). AF488 labeled positive control mAb OKT3 was also analyzed.

For experiment [8], the target named is T1, human CD3. As to the kind of experiment: flow competition on Jurkat, 100 nM unlabeled mAb; competitor AF488-SP34.2 20 nM. Summed up: as §1
Experiment [9] concerns the target T1, human CD3. As to the kind of experiment: cell-based or functional assay. The source holds these as a separate data set.

B1: F282-2D5 (antibody, V domains shown)
VH: QVQLQQPGTELVKPGASVKLSCKASGYTFTSYWMHWVKQRPGQGLEWIGNINPSNGGTNYNENFKTKATLTVDKSSSTAYMQLSSLTSEDSAVYYCARDRSGQYYFDYWGQGTTLTVSS
VL: DIVMSQSPSSLAVSAGEKVTMSCKSSQSLLNSRTRKNYLAWYQQKPGQSPKLLIYWASTRESGVPDRFTGSGSGTDFTLTISSVQAEDLAVYYCIQSYHLRTFGGGTILEIK
notes: also called F282-2D5-2
As to B1, the “% residual fluorescence of labeled mAb” value came to 64% with human CD3 [1], 78% in the experiment with human CD3 [5], 42% with human CD3 [6] and 7% in the experiment with human CD3 [8]. Moreover, the “% max ref. OKT3 (dTomato activation)” value with human CD3 [2] worked out at 98%. The “EC50 of dTomato induction (CD69 promoter), Jurkat-CD69-dTomato cells, 24 h” value (“EC50 of dTomato induction” below) in the experiment with human CD3 [2] came out at 0.13 µg/mL. For the same molecule, the Kd with human CD3 [3] was 0.3 nM; with human CD3 [4] it was 0.47 nM. Besides, the MFI with human CD3 [7] turned out to be 349 MFI. In the experiment with human CD3 [9], the “IC50, indirect ADC surrogate growth inhibition (anti-mouse-DM1) on Jurkat cells” value was determined as 0.075 nM. Moreover, the “Span, indirect ADC surrogate growth inhibition on Jurkat cells” value in the experiment with human CD3 [9] came out at 97%.

B2: F332-4D6 (antibody, mouse IgG2a, V domains shown)
VH: QVQLQQSGAELGKPGTSVKLSCKASGYTFTSYWIHWVKQRPGQGLEWIGNINPNSGSTNYNEKFKRKATLTADKSSSTAYMQLSTLTSEDFAVYYCTRDTSGQYYFDYWGQGTTLTVSS
VL: DIVMSQSPSSLAVSAGEKVTMSCKSSQSLLNSRTRKNYLAWYQQKPGQSPKVLIYWASTRESGVPDRFTGSGSGTDFTLTISSVQAEDLAVYYCKQSYHLRTFGGGTKLEIK
notes: also called F332-4D6-2; F322-4D6
With B2, the “% residual fluorescence of labeled mAb” value stood at 76% with human CD3 [1], 78% with human CD3 [5], 44% with human CD3 [6] and 9% in the experiment with human CD3 [8]. The “% max ref. OKT3 (dTomato activation)” value with human CD3 [2] was found to be 87%. Moreover, in the experiment with human CD3 [2], the “EC50 of dTomato induction” value amounted to 0.18 µg/mL. Also, the values for the Kd with human CD3 [3] and in the experiment with human CD3 [4] were 0.5 nM and 0.53 nM, respectively. Further, in the experiment with human CD3 [7], the MFI stood at 398 MFI. The “IC50, indirect ADC surrogate growth inhibition (anti-mouse-DM1) on Jurkat cells” value with human CD3 [9] was 0.038 nM. The “Span, indirect ADC surrogate growth inhibition on Jurkat cells” value with human CD3 [9] is 92%.

B3: F332-1C9 (antibody, mouse IgG2a, V domains shown)
VH: QVQLQQPGAELGKPGTSVNLSCKASGYTFTSYWMHWVKQRPGQGLDWIGNINPNSGTTNYNEKFKSKATLTVDKSSSTAYMQLSTLTSEDSAVYYCTRDISGQYYFDYWGQGTSLTVSS
VL: DIVMSQSPSSLAVSAGEKVTMSCKSSQSLLNSRTRKNYLAWYQQKPGQSPKLLIYWASTRESGVPDRFTGSGSGTDFTLIISSVQAEDLAVYYCKQSYSLRTFGGGTKLEIK
notes: Sister clones 1A10, 5H8, 8B11 share the same entries; also called F332-1C9-2; F332-1C9 (1A10, 5H8, 8B11)
Turning to B3, the “% residual fluorescence of labeled mAb” value stood at 76% with human CD3 [1], 89% with human CD3 [5], 45% with human CD3 [6] and 12% with human CD3 [8]. The “% max ref. OKT3 (dTomato activation)” value with human CD3 [2] stood at 94%. Moreover, the “EC50 of dTomato induction” value with human CD3 [2] turned out to be 0.2 µg/mL. The results for the Kd with human CD3 [3] and with human CD3 [4] were 0.5 nM and 0.94 nM, respectively. The same molecule gave an MFI with human CD3 [7] of 277 MFI. Also, the “IC50, indirect ADC surrogate growth inhibition (anti-mouse-DM1) on Jurkat cells” value with human CD3 [9] is 0.072 nM. The “Span, indirect ADC surrogate growth inhibition on Jurkat cells” value with human CD3 [9] worked out at 94%.

B4: F332-1E2 (antibody, mouse IgG2a, V domains shown)
VH: QVQLQQPGAELGKPGTSVKLSCKASGYTFTSYWIHWVKQRPGQGLEWVGNINPNSGSINYNEKFKNKATLTVDKSSSTAYMQLSTLTSEDFAVYYCTRDTSGQYYFDYWGQGTTLTVSS
VL: DIVMSQSPSSLAVSAGERVTMSCKSSQSLLNSRTRKNYLAWYQQKPGQSPKLLIYWASTRESGVPDRFTGSGSGTDFTLTISSVQAEDLAVYYCIQSYHLRTFGGGTKLEIK
notes: Sister clone 8C5 shares the same entries; also called F332-1E2-2; F332-1E2 (8C5)
Turning to B4, the “% residual fluorescence of labeled mAb” value with human CD3 [1] was 69%; with human CD3 [5], 77%; in the experiment with human CD3 [6], 42%; in the experiment with human CD3 [8], 6%. Moreover, the “% max ref. OKT3 (dTomato activation)” value in the experiment with human CD3 [2] is 104%. Also, the “EC50 of dTomato induction” value in the experiment with human CD3 [2] was 0.16 µg/mL. The Kd came to 0.3 nM in the experiment with human CD3 [3] and 0.4 nM with human CD3 [4]. For the same molecule, in the experiment with human CD3 [7], the MFI was determined as 319 MFI. In addition, the “IC50, indirect ADC surrogate growth inhibition (anti-mouse-DM1) on Jurkat cells” value with human CD3 [9] came to 0.031 nM. Besides, in the experiment with human CD3 [9], the “Span, indirect ADC surrogate growth inhibition on Jurkat cells” value was 95%.

B5: F332-6D7 (antibody, mouse IgG2a, V domains shown)
VH: QVQLQQPGAELGKPGTSVNLSCKASGYTFTSYWMHWVKQRPGQGLDWIGNINPNSGTTNYNEKFKSKATLTVDKSSSTAYMQLSTLTSEDSAVYYCTRDISGQYYFDYWGQGTSLTVSS
VL: DIVMSQSPSSLAVSAGEKVTMSCKSSQSLLNSRTRKNYLAWYQQKPGQSPKLLIYWASTRESGVPDRFTGSGSGTDFTLTISSVQAEDLAVYYCKQSYSLRTFGGGSKLEIK
notes: also called F332-6D7-2; F332-6D7 (7G4)
For the molecule B5, the “% residual fluorescence of labeled mAb” value with human CD3 [1] worked out at 73%; in the experiment with human CD3 [5] it was 89%; with human CD3 [6], 44%; with human CD3 [8], 10%. Besides, in the experiment with human CD3 [2], the “% max ref. OKT3 (dTomato activation)” value was 86%. The “EC50 of dTomato induction” value with human CD3 [2] was found to be 0.25 µg/mL. Further, the results for the Kd with human CD3 [3] and in the experiment with human CD3 [4] were 0.8 nM and 0.46 nM, respectively. Besides, the MFI in the experiment with human CD3 [7] came out at 247 MFI. The “IC50, indirect ADC surrogate growth inhibition (anti-mouse-DM1) on Jurkat cells” value in the experiment with human CD3 [9] is 0.072 nM. For the same molecule, the “Span, indirect ADC surrogate growth inhibition on Jurkat cells” value with human CD3 [9] stood at 96%.

B6: F332-3E9 (antibody, mouse IgG2a, V domains shown)
VH: QVQLQQPGAELGKPGTSVKLSCKASGYTFTSYWIHWLKQRPGQGLEWIGNINPNGGSINCNEKFTTKATLTIDKSSSTAYMQLSTLTSEDFAVYYCTRDTSGQYYFDYWGQGTTLTVSS
VL: DIMMSQSPSSLAVSAGEKVTMSCKSSQSLLNSRTRKNYLAWYQQKPGQSPKLLIYWASTRESGVPDRFTGSGSGTDFTLTISSVQAEDLAVYYCTQSYHLRTFGGGTKLEIK
notes: also called F332-3E9-2; F332-3E9 (12G4)
For B6, the “% residual fluorescence of labeled mAb” value with human CD3 [1] was 76%; in the experiment with human CD3 [5] it was 79%; in the experiment with human CD3 [6], 45%; in the experiment with human CD3 [8] it was 11%. Besides, in the experiment with human CD3 [2], the “% max ref. OKT3 (dTomato activation)” value came to 84%. For the same molecule, the “EC50 of dTomato induction” value with human CD3 [2] amounted to 0.11 µg/mL. The results for the Kd with human CD3 [3] and with human CD3 [4] were 0.5 nM and 1 nM, respectively. Moreover, the MFI with human CD3 [7] is 297 MFI. In the experiment with human CD3 [9], the “IC50, indirect ADC surrogate growth inhibition (anti-mouse-DM1) on Jurkat cells” value turned out to be 0.05 nM. Also, the “Span, indirect ADC surrogate growth inhibition on Jurkat cells” value with human CD3 [9] was 94%.
